The values that follow are results of earlier work, collected in article PMC8801382.

Series [1] addresses beta-globin (Homo sapiens) (UniProt P68871).
Series [2] concerns the target alpha-globin (Homo sapiens) (UniProt P69905).

Sequence of UniProt P68871 (P68871 2-147): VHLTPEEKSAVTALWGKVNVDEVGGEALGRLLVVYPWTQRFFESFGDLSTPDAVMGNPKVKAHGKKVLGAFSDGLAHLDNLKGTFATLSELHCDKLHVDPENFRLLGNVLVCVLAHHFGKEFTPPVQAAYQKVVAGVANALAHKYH

On to alpha-globin (from UniProt P69905), for which the Kd in series [1] is 0.001 nM.

Take AHSP (from UniProt Q9NZD4): in series [2], the equilibrium dissociation constant (Kd) is 17 nM.
